Data on 1 molecule can be found in patent US20250388697A1 (UNIVERSITY OF MASSACHUSETTS, published 2025).

In the experiment the target is T1, endogenous murine SOD1 WT (in non-transgenic mouse spinal cord lysate) (mouse, UniProt P08228 2-154).
T1 construct: Tested only as a component of clarified spinal cord lysate; also called marine SOD1 WT (as printed once)
Description: competitive ELISA: Nb54 (0.2 µg/ml) on immobilized SOD1 G93A with Non-Tg mouse spinal cord lysate as competitor. (In general: ELISA stands for enzyme-linked immunosorbent assay.)
Description: A competitive ELISA was used to assess a potential interaction between nanobody and SOD1 derived from an ALS mouse model as follows. […] All research involving animals for the following post-mortem tissue processing was reviewed and approved by the Institutional Animal Care and Use Committee (IACUC) at the University of Massachusetts Chan Medical School.
Serial dilutions were prepared in 25 μl of assay buffer (0.2% (w/v) BSA in PBS). […] A statistical analysis was performed as described below and in the figure legend.

T1 sequence (P08228 2-154 limits assumed): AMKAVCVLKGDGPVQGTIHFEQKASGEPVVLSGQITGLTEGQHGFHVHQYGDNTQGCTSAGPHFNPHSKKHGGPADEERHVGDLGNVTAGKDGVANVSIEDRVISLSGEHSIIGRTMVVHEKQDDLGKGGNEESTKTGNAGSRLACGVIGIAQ

B1: Nb54 with a non-cleavable his-tag (used in the competitive ELISA) (VHH)
VHH: QVQLVESGGGWVQAGGSLRLSCVVSGTNFNDRSMGWYRQAPGKERELVATLSYGGRRNYVDAVKARFTMSRDNRKNTTYLLMNDLEPDDTAVYYCAAGHVLESVVPATTWIEYWGQGTQVTVSS
notes: not shown: non-cleavable his-tag
For B1, the binding result is listed as “no binding”.
